Assay results published in US20070105759.

Target: human MC4 receptor (human), P32245
Assay: competition
Settings: modification not given

Chain of human MC4 receptor (human), P32245 (P32245 whole entry): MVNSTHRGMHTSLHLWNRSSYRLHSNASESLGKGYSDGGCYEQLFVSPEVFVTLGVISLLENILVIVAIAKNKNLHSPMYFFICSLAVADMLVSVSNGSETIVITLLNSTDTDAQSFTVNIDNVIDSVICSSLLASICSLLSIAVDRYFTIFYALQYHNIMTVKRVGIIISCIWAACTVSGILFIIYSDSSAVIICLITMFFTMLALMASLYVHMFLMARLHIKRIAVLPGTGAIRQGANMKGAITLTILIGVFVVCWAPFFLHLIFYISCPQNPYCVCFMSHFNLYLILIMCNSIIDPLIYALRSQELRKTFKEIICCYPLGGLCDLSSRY

## YRCEHFRWC [Compound 77]
  Ki: 0.41 nM
